Measured values published in the supplement of paper PMC9233669.
Fewer inactive variants are shown than the library holds.

How the values were obtained:
[1] = system: biotinyl-Phe-oxazolone; experiment: self-aminoacylation, catalytic enhancement (BFO) (fold over background); higher = more active; k-Seq, kA / k0A0; sequences stand for … in GGGAAUGGAUCCACAUCUACGAAUUC…UUCACUGCAGACUUGACGAAGCUG
Procedure, shortened: (§1)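 Catalytic enhancement equals the median kA over the uncatalyzed rate, the latter read from the low-activity peak of a bimodal Gaussian fit. Values of kA came from fitting each sequence's fraction reacted to a pseudo-first-order model, with 1000 bootstraps. Reacted RNA was captured with streptavidin and quantified by triplicate qPCR and Illumina sequencing after 90 minutes at room temperature with 2–1250 μM biotinyl-aminoacyl-oxazolone and 0.43 μM mutagenized RNA pools bearing a 21-nt variable region.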

[2] = system: biotinyl-Ile-oxazolone; experiment: self-aminoacylation, catalytic enhancement (BIO) (fold over background); higher = more active; k-Seq, kA / k0A0; sequences stand for … in GGGAAUGGAUCCACAUCUACGAAUUC…UUCACUGCAGACUUGACGAAGCUG
Procedure, shortened: as §1

[3] = system: biotinyl-Met-oxazolone; experiment: self-aminoacylation, catalytic enhancement (BMO) (fold over background); higher = more active; k-Seq, kA / k0A0; sequences stand for … in GGGAAUGGAUCCACAUCUACGAAUUC…UUCACUGCAGACUUGACGAAGCUG
Procedure, shortened: as §1

[4] = system: biotinyl-Val-oxazolone; experiment: self-aminoacylation, catalytic enhancement (BVO) (fold over background); higher = more active; k-Seq, kA / k0A0; sequences stand for … in GGGAAUGGAUCCACAUCUACGAAUUC…UUCACUGCAGACUUGACGAAGCUG
Procedure, shortened: as §1

[5] = system: biotinyl-Leu-oxazolone; experiment: self-aminoacylation, catalytic enhancement (BLO) (fold over background); higher = more active; k-Seq, kA / k0A0; sequences stand for … in GGGAAUGGAUCCACAUCUACGAAUUC…UUCACUGCAGACUUGACGAAGCUG
Procedure, shortened: as §1

[6] = system: biotinyl-Trp-oxazolone; experiment: self-aminoacylation, catalytic enhancement (BWO) (fold over background); higher = more active; k-Seq, kA / k0A0; sequences stand for … in GGGAAUGGAUCCACAUCUACGAAUUC…UUCACUGCAGACUUGACGAAGCUG
Procedure, shortened: as §1

| Sequence | self-aminoacylation [1] | self-aminoacylation [2] | self-aminoacylation [3] | self-aminoacylation [4] | self-aminoacylation [5] | self-aminoacylation [6] |
| --- | --- | --- | --- | --- | --- | --- |
| CCACACUUCAAGCAUUGGGUC [Fam1B.1 aminoacylation ribozyme variant] | 0.918 | 1.04 | 1.03 | 1.4 | 0.83 | 0.956 |
| CCACACUUCAAGCAUUUGGUC [Fam1B.1 aminoacylation ribozyme variant] | 0.631 | 0.835 | 0.691 | 0.851 | 0.77 | 0.912 |
| CCACACUUCAAGCCAUCGGGC [Fam1B.1 aminoacylation ribozyme variant] | 1.42 | 2.49 | 1.85 | 3.22 | 4.06 | 2.1 |
| CCACACUUCAAGCCAUGGGUC [Fam1B.1 aminoacylation ribozyme variant] | 0.678 | 1.15 | 1.13 | 0.952 | 1.14 | 0.675 |
| CCACACUUCAAGCCCUCGGUC [Fam1B.1 aminoacylation ribozyme variant] | 5.16 | 1.4 | 2.01 | 1.58 | 1.64 | 1.92 |
| CCACACUUCAAGCGAUAGGUC [Fam1B.1 aminoacylation ribozyme variant] | 0.743 | 0.605 | 0.471 | 0.642 | 0.543 | 0.453 |
| CCACACUUCAAGCUAACGGUC [Fam1B.1 aminoacylation ribozyme variant] | 0.79 | 0.568 | 0.532 | 0.78 | 0.444 | 0.546 |
| CCACACUUCAAGCUACCGGUC [Fam1B.1 aminoacylation ribozyme variant] | 0.832 | 1.23 | 0.931 | 1.3 | 1.2 | 0.946 |
| CCACACUUCAAGCUAUCGGAC [Fam1B.1 aminoacylation ribozyme variant] | 0.941 | 0.982 | 0.654 | 1.01 | 0.681 | 0.582 |
| CCACACUUCAAGCUAUCGGUU [Fam1B.1 aminoacylation ribozyme variant] | 0.942 | 1.29 | 1.18 | 1.43 | 1.12 | 0.897 |
| CCACACUUCAAGCUUUCGGUC [Fam1B.1 aminoacylation ribozyme variant] | 0.741 | 1.53 | 1.17 | 1.64 | 1.3 | 1.1 |
| CCACACUUCAAGGAAUAGGUC [Fam1B.1 aminoacylation ribozyme variant] | 0.627 | 0.526 | 0.489 | 0.514 | 0.478 | 0.5 |
| CCACACUUCAAGGAAUUGGUC [Fam1B.1 aminoacylation ribozyme variant] | 0.734 | 0.901 | 0.755 | 0.726 | 1.03 | 0.823 |
| CCACACUUCAAGGACUCGGUC [Fam1B.1 aminoacylation ribozyme variant] | 1.05 | 1.02 | 1.03 | 1.24 | 1.23 | 1.13 |
| CCACACUUCAAGUAAUCCGUC [Fam1B.1 aminoacylation ribozyme variant] | 0.9 | 1.06 | 1.1 | 1.06 | 0.839 | 1.16 |
| CCACACUUCAAGUAAUCGGUA [Fam1B.1 aminoacylation ribozyme variant] | 0.884 | 1.01 | 1.09 | 0.929 | 1.17 | 0.708 |
| CCACACUUCAAGUAGUCGGUC [Fam1B.1 aminoacylation ribozyme variant] | 0.856 | 0.96 | 0.857 | 0.865 | 0.92 | 0.919 |
| CCACACUUCAAGUGAUCGGUC [Fam1B.1 aminoacylation ribozyme variant] | 1.72 | 1.04 | 1.1 | 1.06 | 0.951 | 1.24 |
| CCACACUUCAAUCAACCGGUC [Fam1B.1 aminoacylation ribozyme variant] | 0.923 | 0.862 | 0.665 | 1.02 | 1.06 | 1.22 |
| CCACACUUCAAUCAAUCGAUC [Fam1B.1 aminoacylation ribozyme variant] | 1.25 | 0.523 | 0.463 | 0.609 | 0.512 | 0.592 |
| CCACACUUCACGCAAUCAGUC [Fam1B.1 aminoacylation ribozyme variant] | 0.704 | 0.823 | 0.662 | 0.731 | 0.673 | 0.962 |
| CCACACUUCACGCAAUCUGUC [Fam1B.1 aminoacylation ribozyme variant] | 0.436 | 0.481 | 0.472 | 0.678 | 0.447 | 0.464 |
| CCACACUUCACGCCAUCGGUC [Fam1B.1 aminoacylation ribozyme variant] | 1.28 | 1.59 | 1.31 | 2.13 | 1.51 | 2.05 |
| CCACACUUCACGGAAUCGGUC [Fam1B.1 aminoacylation ribozyme variant] | 1.01 | 1.16 | 1.14 | 1.39 | 1.65 | 0.915 |
| CCACACUUCAGGCAACCGGUC [Fam1B.1 aminoacylation ribozyme variant] | 1.64 | 1.89 | 1.61 | 1.95 | 1.38 | 1.27 |
| CCACACUUCAGGCAAUCGGUU [Fam1B.1 aminoacylation ribozyme variant] | 6.44 | 1.68 | 2.24 | 1.98 | 2.13 | 2.37 |

| Sequence | self-aminoacylation [1] | self-aminoacylation [2] | self-aminoacylation [3] | self-aminoacylation [4] | self-aminoacylation [5] | self-aminoacylation [6] |
| --- | --- | --- | --- | --- | --- | --- |
| CCACACUUCAUCCAAUCGGUC [Fam1B.1 aminoacylation ribozyme variant] | 0.689 | 0.883 | 0.811 | 0.912 | 0.854 | 0.581 |
| CCACACUUCAUGCAACCGGUC [Fam1B.1 aminoacylation ribozyme variant] | 0.916 | 0.996 | 0.943 | 0.981 | 0.795 | 0.752 |
| CCACACUUCAUGCAAUCGGUA [Fam1B.1 aminoacylation ribozyme variant] | 0.533 | 0.681 | 0.769 | 0.733 | 0.811 | 0.458 |
| CCACACUUCAUGCAAUCGGUU [Fam1B.1 aminoacylation ribozyme variant] | 0.766 | 1.2 | 1.33 | 1.26 | 1.37 | 0.843 |
| CCACACUUCAUGGAAUCGGUC [Fam1B.1 aminoacylation ribozyme variant] | 0.928 | 0.858 | 0.836 | 1.1 | 0.946 | 0.598 |
| CCACACUUCCAGCAAUCGGAC [Fam1B.1 aminoacylation ribozyme variant] | 0.784 | 0.999 | 0.797 | 1.1 | 0.592 | 0.846 |
| CCACACUUCCAGCAAUCGGUC [Fam1B.1 aminoacylation ribozyme variant] | 1.03 | 1.14 | 0.882 | 1.25 | 0.9 | 0.872 |
| CCACACUUCCAGCAAUCGGUG [Fam1B.1 aminoacylation ribozyme variant] | 18.9 | 2.74 | 3.83 | 3.05 | 4.82 | 3.13 |
| CCACACUUCCAGCAAUCGUUC [Fam1B.1 aminoacylation ribozyme variant] | 1.22 | 1.09 | 0.642 | 1.05 | 0.64 | 0.75 |
| CCACACUUCCAGCAGUCGGUC [Fam1B.1 aminoacylation ribozyme variant] | 0.659 | 1.24 | 1.14 | 1.29 | 1.11 | 0.613 |
| CCACACUUCCAUCAAUCGGUC [Fam1B.1 aminoacylation ribozyme variant] | 0.715 | 0.683 | 0.561 | 0.732 | 0.593 | 0.586 |
| CCACACUUCCUGCAAUCGGUC [Fam1B.1 aminoacylation ribozyme variant] | 0.777 | 1.04 | 0.859 | 1.19 | 1.11 | 0.961 |
| CCACACUUCGACCAAUCGGUC [Fam1B.1 aminoacylation ribozyme variant] | 1.42 | 1.31 | 1.74 | 1.85 | 1.22 | 1.41 |
| CCACACUUCGAGCAAUCCGUC [Fam1B.1 aminoacylation ribozyme variant] | 0.498 | 1.28 | 1.03 | 1.49 | 1.08 | 1.4 |
| CCACACUUCGAGCCAUCGGUC [Fam1B.1 aminoacylation ribozyme variant] | 1.27 | 1.84 | 1.27 | 1.87 | 1.58 | 1.02 |
| CCACACUUCGAGUAAUCGGUC [Fam1B.1 aminoacylation ribozyme variant] | 0.641 | 0.822 | 0.958 | 0.893 | 0.78 | 0.789 |
| CCACACUUCUAACAAUCGGUC [Fam1B.1 aminoacylation ribozyme variant] | 0.614 | 0.797 | 0.619 | 0.798 | 0.69 | 0.618 |
| CCACACUUCUAGCAAUAGGUC [Fam1B.1 aminoacylation ribozyme variant] | 0.978 | 0.629 | 0.554 | 0.666 | 0.53 | 0.429 |
| CCACACUUCUAGCAAUCGGAC [Fam1B.1 aminoacylation ribozyme variant] | 0.585 | 0.941 | 0.665 | 0.612 | 0.979 | 0.61 |
| CCACACUUCUAGCAAUCGGGC [Fam1B.1 aminoacylation ribozyme variant] | 4.87 | 2.09 | 1.08 | 1.64 | 1.21 | 1.7 |
| CCACACUUCUAGCAAUCGGUC [Fam1B.1 aminoacylation ribozyme variant] | 0.957 | 0.771 | 0.611 | 0.852 | 0.624 | 0.616 |
| CCACACUUCUAGCAAUUGGUC [Fam1B.1 aminoacylation ribozyme variant] | 0.539 | 0.611 | 0.638 | 0.687 | 0.636 | 0.401 |
| CCACACUUCUAGCACUCGGUC [Fam1B.1 aminoacylation ribozyme variant] | 0.649 | 0.819 | 0.748 | 0.783 | 0.702 | 0.913 |
| CCACACUUGAACCAAUCGGUC [Fam1B.1 aminoacylation ribozyme variant] | 0.969 | 0.804 | 0.673 | 0.819 | 0.635 | 0.742 |
| CCACACUUGAAGCUAUCGGUC [Fam1B.1 aminoacylation ribozyme variant] | 0.482 | 1.07 | 0.885 | 1.02 | 0.775 | 0.759 |
